{
  "source": "patent US20240252617A1",
  "target": "monomeric SARS-CoV-2 receptor binding domain (RBD) (SARS-CoV-2) (UniProt P0DTC2)",
  "data": [
    {"substance": "DH1047 antigen binding fragment (Fab)", "values": [
      {"measurement": "Kd", "result": "< 20", "unit": "pM"}
    ]}
  ]
}
